Common to all, as to assay: co-IP with mouse anti-FLAG from lysate of cells overexpressing N-FLAG B3GNT2, then mass spectrometry
The target in one assay is T1, CAPRIN1 (human, UniProt Q14444 2-709).
T1 construct: Identified by mass spectrometry in the co-IP; also called NP_005889.3 (+1)
T1 sequence (looked up): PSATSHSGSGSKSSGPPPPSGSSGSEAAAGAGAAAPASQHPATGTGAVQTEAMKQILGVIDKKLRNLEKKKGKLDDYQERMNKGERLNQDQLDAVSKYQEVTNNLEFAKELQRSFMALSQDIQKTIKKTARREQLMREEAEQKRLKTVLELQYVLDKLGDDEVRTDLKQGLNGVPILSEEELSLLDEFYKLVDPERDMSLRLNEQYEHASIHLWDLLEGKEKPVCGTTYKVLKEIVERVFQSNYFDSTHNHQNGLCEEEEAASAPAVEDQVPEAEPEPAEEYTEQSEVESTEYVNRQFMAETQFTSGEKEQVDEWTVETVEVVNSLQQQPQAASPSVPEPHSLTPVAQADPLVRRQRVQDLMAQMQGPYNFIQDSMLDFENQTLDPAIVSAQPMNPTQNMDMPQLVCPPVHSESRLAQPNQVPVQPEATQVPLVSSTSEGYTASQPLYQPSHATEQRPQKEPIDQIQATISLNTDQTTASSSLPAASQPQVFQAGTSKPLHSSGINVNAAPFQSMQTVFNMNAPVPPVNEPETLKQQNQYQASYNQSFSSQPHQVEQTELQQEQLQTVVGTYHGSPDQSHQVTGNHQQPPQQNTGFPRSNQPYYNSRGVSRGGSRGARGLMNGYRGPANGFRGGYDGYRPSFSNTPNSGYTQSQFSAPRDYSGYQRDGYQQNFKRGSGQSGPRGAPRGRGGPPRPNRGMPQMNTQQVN
On the procedure: (§1) Cells were plated in 10-cm cell culture dishes and grown to 60-80% confluency. For each condition, two biological replicates were harvested for co-IP. Cells were washed with PBS and 4 mL of lysis buffer (20 mM HEPES, 1% Triton X-100, 150 mM NaCl, 1 mM EDTA, and 10% glycerol) containing protease inhibitor cocktail was added. Cells were scraped and lysate was incubated at 4° C. under rotary agitation for 1 h. Lysate was centrifuged at 14,000×g for 10 min at 4° C. Supernatant was transferred to a new tube and an aliquot was taken as the input. […] For Western blots, 10 μg/mL Chicken Anti-FLAG (Aves labs ET-DY100) and IgY control (R&D Systems AB-101-C) antibodies were biotinylated (Thermo Fisher Scientific 90407) and added to the respective conditions. Lysates with antibodies were incubated at 4° C. under rotary agitation overnight. For each mL of lysate, 50 μL of Pierce Protein A/G Magnetic Beads (Mass spectrometry; Thermo Fisher Scientific 88803) or Pierce Streptavidin Magnetic Beads (Western blot; Thermo Fisher Scientific 88817) was washed twice with lysis buffer. Lysates with antibodies were added to the beads and incubated at 4° C. under rotary agitation for 4 h. Beads were washed with lysis buffer 3 times and resuspended in lysis buffer for storage.
(§2) Magnetic beads were resuspended in 100 mM Tris pH 7.8, reduced, alkylated and digested with trypsin at 37° ° C. overnight. This solution was subjected to solid phase extraction to concentrate the peptides and remove unwanted reagents followed by injection onto a Shimadzu HPLC with fraction collector. Eight fractions were collected and after concentration were injected on a Waters NanoAcquity HPLC equipped with a self-packed Aeris 3 μm C18 analytical column 0.075 mm by 20 cm, (Phenomenex). Peptides were eluted using standard reverse-phase gradients. The effluent from the column was analyzed using a Thermo Orbitrap Elite mass spectrometer (nanospray configuration) operated in a data dependent manner for 54 minutes. The resulting fragmentation spectra were correlated against the known database using Proteome Discover 1.4 (Thermo Fisher Scientific).

The next assay addresses T2, SRP14 (human, UniProt P37108 2-136).
T2 construct: Identified by mass spectrometry in the co-IP; also called NP_003125.3
T2 sequence (looked up): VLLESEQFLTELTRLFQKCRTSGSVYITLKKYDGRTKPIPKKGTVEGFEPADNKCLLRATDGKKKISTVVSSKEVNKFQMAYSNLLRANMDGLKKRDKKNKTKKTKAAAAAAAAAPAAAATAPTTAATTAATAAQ
On the procedure: as §1, §2

A further assay has as its target T3, TFAM (human, UniProt Q00059 43-246).
T3 construct: Identified by mass spectrometry in the co-IP; also called NP_003192.1
T3 sequence (looked up): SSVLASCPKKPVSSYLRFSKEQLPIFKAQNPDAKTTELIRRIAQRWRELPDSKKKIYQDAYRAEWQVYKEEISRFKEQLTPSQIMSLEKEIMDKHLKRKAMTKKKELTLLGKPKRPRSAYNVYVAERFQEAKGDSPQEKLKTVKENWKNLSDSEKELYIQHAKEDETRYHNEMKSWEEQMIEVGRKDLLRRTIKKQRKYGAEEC
On the procedure:
as §1, §2

Another assay has as its target T4, MAGED2 (human, UniProt Q9UNF1 2-606).
T4 construct: Identified by mass spectrometry in the co-IP; also called NP_803182.1
T4 sequence (looked up): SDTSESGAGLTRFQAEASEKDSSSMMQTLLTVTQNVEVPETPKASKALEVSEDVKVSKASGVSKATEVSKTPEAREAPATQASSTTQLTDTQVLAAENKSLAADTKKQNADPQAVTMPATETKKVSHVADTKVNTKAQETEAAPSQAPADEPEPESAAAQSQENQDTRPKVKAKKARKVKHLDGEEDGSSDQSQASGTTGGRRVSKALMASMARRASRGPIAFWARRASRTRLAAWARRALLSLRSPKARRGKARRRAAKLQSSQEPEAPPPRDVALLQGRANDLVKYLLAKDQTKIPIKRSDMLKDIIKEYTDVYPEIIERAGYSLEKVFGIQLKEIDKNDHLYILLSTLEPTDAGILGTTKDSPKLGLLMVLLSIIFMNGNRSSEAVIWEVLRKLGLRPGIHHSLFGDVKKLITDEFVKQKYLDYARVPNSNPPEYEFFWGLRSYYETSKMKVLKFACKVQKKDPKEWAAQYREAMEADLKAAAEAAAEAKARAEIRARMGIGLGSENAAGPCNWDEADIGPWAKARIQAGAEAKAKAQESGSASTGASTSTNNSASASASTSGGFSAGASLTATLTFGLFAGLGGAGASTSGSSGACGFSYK
As for the experimental part:
as §1, §2

A further assay deals with T5, PABPC1 (human, UniProt P11940 1-636).
T5 construct: Identified by mass spectrometry in the co-IP; also called NP_002559.2
As for the experimental part:
as §1, §2

T5 sequence (P11940 whole entry): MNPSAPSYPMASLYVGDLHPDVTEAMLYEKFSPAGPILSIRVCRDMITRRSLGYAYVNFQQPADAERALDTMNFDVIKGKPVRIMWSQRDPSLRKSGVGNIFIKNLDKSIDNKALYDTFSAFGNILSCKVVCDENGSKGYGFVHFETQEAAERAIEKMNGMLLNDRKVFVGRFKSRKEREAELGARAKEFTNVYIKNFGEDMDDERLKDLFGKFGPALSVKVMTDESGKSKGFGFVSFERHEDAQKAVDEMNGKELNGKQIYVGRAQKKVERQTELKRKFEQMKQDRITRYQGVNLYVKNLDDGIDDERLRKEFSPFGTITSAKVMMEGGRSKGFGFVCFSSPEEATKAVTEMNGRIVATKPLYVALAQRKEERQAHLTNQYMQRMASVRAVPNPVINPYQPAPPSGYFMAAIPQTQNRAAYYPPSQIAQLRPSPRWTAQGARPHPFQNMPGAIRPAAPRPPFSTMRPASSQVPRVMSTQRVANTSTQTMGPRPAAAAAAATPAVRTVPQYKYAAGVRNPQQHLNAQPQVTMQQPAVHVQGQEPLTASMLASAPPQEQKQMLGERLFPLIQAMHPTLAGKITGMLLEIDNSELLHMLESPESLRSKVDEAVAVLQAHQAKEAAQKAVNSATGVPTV

B1: N-terminal FLAG tagged B3GNT2 (enzyme, human, UniProt Q9NY97 1-397, looked up)
chain: MSVGRRRIKLLGILMMANVFIYFIMEVSKSSSQEKNGKGEVIIPKEKFWKISTPPEAYWNREQEKLNRQYNPILSMLTNQTGEAGRLSNISHLNYCEPDLRVTSVVTGFNNLPDRFKDFLLYLRCRNYSLLIDQPDKCAKKPFLLLAIKSLTPHFARRQAIRESWGQESNAGNQTVVRVFLLGQTPPEDNHPDLSDMLKFESEKHQDILMWNYRDTFFNLSLKEVLFLRWVSTSCPDTEFVFKGDDDVFVNTHHILNYLNSLSKTKAKDLFIGDVIHNAGPHRDKKLKYYIPEVVYSGLYPPYAGGGGFLYSGHLALRLYHITDQVHLYPIDDVYTGMCLQKLGLVPEKHKGFRTFDIEEKNKNNICSYVDLMLVHSRKPQEMIDIWSQLQSAHLKC
notes: FLAG-tagged ORF overexpressed in A375 cells; bait of the co-IP with mouse anti-FLAG; also called N-FLAG B3GNT2; N-term FLAG; not shown: N-terminal FLAG tag
In the case of B1, the “co-IP mass spectrometry count (N-term FLAG)” value was 7 in the assay with CAPRIN1; 0 with SRP14; 0 with TFAM; 0 in the assay with MAGED2; 31 in the assay with PABPC1.

For the origin of these results see patent US20240261333A1 (published 2024).
